Measured values reported in patent US20250057968A1, “ANTI-DLL3 ANTIBODY AND PHARMACEUTICAL USE THEREOF, AND ANTIBODY-DRUG CONJUGATE CONTAINING ANTI-DLL3 ANTIBODY” (Jiangsu Hengrui Pharmaceuticals Co., Ltd., priority 2021, published 2025).

What was measured:
[1] = molecular target: T1, RatDLL3/CHO-s (Rattus norvegicus, UniProt O88671); test: Cell-level FACS binding assay, RatDLL3/CHO-s cells
T1 construct: Rat DLL3 full-length protein; expressed in transfected cells; host or cells: CHO-s (Invitrogen, R80007), lentiviral transduction
T1 sequence (O88671 33-589): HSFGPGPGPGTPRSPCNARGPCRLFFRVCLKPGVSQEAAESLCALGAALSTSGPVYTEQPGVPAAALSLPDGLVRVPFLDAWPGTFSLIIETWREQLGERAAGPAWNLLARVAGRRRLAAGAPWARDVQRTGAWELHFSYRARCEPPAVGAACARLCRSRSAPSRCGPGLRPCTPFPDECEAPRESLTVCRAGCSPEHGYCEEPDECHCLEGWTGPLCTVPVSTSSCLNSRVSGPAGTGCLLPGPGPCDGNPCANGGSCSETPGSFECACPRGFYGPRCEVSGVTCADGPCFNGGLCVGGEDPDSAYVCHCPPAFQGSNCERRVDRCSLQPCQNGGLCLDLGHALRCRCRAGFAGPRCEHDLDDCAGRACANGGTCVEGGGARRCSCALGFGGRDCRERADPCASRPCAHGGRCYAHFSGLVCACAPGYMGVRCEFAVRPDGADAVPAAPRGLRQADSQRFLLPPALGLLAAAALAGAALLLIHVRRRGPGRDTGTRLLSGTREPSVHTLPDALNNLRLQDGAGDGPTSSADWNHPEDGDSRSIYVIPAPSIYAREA
Experimental: (§1) Cells of the DLL3-expressing small cell lung cancer cell lines H1184 (ATCC, Cat. No. CRL-5858), DLL3/H82, cynoDLL3/CHO-s, and RatDLL3/CHO-s were suspended at 1×10^6/mL in FACS buffer (1% BSA+pH 7.4 PBS), and the cell suspensions were added to a 96-well round-bottom plate (Corning, 3795) at 100 μL/well. The plate was centrifuged at 300 g for 5 min, and the supernatant was removed. Different concentrations of test antibodies were added at 100 μL/well. The plate was incubated in the dark in a refrigerator at 4° C. for 1 h. After 3 washes by centrifugation at 300 g, working concentrations of APC anti-human IgG Fc (BioLegend, 410712) or PE F(ab′)2-goat anti-human IgG (invitrogen, H10104) were added. The plate was incubated in the dark in a refrigerator at 4° C. for 40 min. After 3 washes by centrifugation at 300 g, the geometric mean fluorescence intensity was measured on an Invitrogen flow cytometer, and the EC50 values of the antibodies in binding to DLL3-expressing cells were calculated. The results are shown in Table 11-1, Table 11-2, Table 11-3, and FIG. 1A to FIG. 1C.

[2] = molecular target: T2, Human DLL3 full-length protein on cells (human, UniProt Q9NYJ7 27-618); test: cell-based or functional assay
T2 sequence: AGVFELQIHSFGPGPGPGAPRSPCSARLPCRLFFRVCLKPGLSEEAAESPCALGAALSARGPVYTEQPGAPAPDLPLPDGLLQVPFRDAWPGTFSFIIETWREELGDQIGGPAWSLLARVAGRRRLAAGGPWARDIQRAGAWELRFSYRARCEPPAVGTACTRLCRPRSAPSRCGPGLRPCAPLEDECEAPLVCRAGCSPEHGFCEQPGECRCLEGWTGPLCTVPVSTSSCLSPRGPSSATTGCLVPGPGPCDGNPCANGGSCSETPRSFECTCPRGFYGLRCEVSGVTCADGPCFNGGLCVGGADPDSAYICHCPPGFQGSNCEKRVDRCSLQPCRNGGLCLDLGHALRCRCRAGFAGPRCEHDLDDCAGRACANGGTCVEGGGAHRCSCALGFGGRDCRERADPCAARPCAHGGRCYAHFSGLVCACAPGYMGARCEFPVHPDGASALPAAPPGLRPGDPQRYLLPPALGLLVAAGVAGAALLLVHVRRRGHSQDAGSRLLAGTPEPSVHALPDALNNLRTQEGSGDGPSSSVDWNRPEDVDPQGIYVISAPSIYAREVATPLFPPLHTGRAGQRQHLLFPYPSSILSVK

[3] = molecular target: T2, Human DLL3 full-length protein on cells; test: FACS on H1184 cells
Experimental: as §1, with “calculated.” for “calculated. The results are shown in Table 11-1, Table 11-2, Table 11-3, and FIG. 1A to FIG. 1C.”

[4] = molecular target: T2, Human DLL3 full-length protein on cells; test: cell-based or functional assay; remark: listed apart in the source
[5] = molecular target: T3, Rat DLL3 full-length protein on CHO-s cells (rat, UniProt O88671 33-589); test: FACS on RatDLL3/CHO-s cells
T3 construct: also called RatDLL3/CHO-s; ratDLL3/CHO-s
T3 sequence: T1 sequence (O88671 33-589)
Experimental: as §1, with “calculated.” for “calculated. The results are shown in Table 11-1, Table 11-2, Table 11-3, and FIG. 1A to FIG. 1C.”

[6] = molecular target: T4, hDLL3(ECD)-strep twin, biotinylated (human, UniProt Q9NYJ7 27-492, biotinylated (site not stated)); test: competition ELISA: BI-764532 coated on the plate (1 µg/mL), biotinylated DLL3-Strep (0.1 µg/mL) with soluble BI-764532 as competitor, streptavidin-peroxidase detection, OD450
T4 construct: also called Biotinylated DLL3 antigen; Biotinylated DLL3-Strep
Experimental: The plate was washed 3 times with 250 μL of PBST solution per well. The plate was blocked with 250 μL of 5% milk per well at 37° C. for 2 h. The plate was washed 3 times with 250 μL of PBST solution per well. […] The plate was washed 6 times with 250 μL of PBST solution per well. […] The plate was washed 6 times with 250 μL of PBST solution per well. TMB (KPL, 5120-0077) substrate solution was added at 100 μL/well, and color development was allowed at room temperature for 5-10 min.

[7] = molecular target: T5, Cynomolgus monkey DLL3 full-length protein on CHO-s cells (cynomolgus monkey, UniProt Q9NYJ7 27-618 (human entry)); test: FACS on cynoDLL3/CHO-s cells
T5 construct: also called cynoDLL3/CHO-s
T5 chain: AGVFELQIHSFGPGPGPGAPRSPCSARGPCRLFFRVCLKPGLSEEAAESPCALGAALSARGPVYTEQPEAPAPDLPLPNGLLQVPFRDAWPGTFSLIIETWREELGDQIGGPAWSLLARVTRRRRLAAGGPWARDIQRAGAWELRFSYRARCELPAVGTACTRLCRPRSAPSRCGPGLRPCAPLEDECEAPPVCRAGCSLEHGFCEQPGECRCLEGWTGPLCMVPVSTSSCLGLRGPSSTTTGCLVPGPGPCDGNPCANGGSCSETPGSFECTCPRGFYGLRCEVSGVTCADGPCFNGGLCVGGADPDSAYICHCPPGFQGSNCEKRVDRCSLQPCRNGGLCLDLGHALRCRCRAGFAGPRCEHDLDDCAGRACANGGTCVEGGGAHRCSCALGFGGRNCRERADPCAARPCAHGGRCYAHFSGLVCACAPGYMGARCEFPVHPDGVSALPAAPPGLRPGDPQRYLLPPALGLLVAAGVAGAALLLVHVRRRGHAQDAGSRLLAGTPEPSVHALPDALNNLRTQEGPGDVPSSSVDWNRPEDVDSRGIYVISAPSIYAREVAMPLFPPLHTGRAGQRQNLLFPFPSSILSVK
Experimental: as §1, with “calculated.” for “calculated. The results are shown in Table 11-1, Table 11-2, Table 11-3, and FIG. 1A to FIG. 1C.”

## BI-764532: positive control molecule, constructed by reference to WO2019234220A1; heavy chain SEQ ID NO: 62, light chain SEQ ID NO: 63 [reference compound]
[1]
  binding to cells expressing rat DLL3 (in words): No binding

B1: ADC-2 (antibody, human IgG1, kappa, V domains shown)
VH: EVQLVESGGGLVKPGGSLRLSCAASGFTFSDSGMHWIRQAPGKGLEWVSYISSGSSTIHYADTVKGRFTISRDNAKNSLYLQMNSLRAEDTAVYYCASPLYYYGRSYNAVAYWGQGTTVTVSS
VL: DIQMTQSPSSLSASVGDRVTITCHASQNINVWLSWYQQKPGKVPKLLIYKASDLHTGVPSRFSGSGSGTDFTLTISSLQPEDVATYYCQQGQSYPLTFGGGTKVEIKR
modifications: linker-drug L-9 conjugated after TCEP reduction; sites not stated; linker-drug L-9 (ecteinascidin derivative) conjugated after TCEP reduction; sites not stated; DAR n=3.72-4.88 for the whole antibody
[2]
  IC50 (nM), killing of DMS53 (+) cells: 13.1 nM
  IC50 (nM), killing of H1184 (+++) cells: 0.11 nM

B2: BI-764532 (antibody, human IgG1, kappa, V domains shown)
VH: QVQLVQSGAEVKKPGASVKVSCKASGYTFTSYYVHWVRQAPGQGLEWMVIINPGGGTTSYAQKFLGRVTMTRDTSTNTVYMELKSLRSEDTAVYYCARGEAVTGNYFYYGMDVWGQGTTVTVSS
VL: DIQMTQSPSAMSASVGDRVTITCRASQGISNYLVWFQQKPGKAPKRLIYAVSSLYSGVPSRFSGSGSGTEFTLTISSLQPEDFATYYCLQHDSYPYTFGQGTKLEIKR
notes: also called positive control molecule
[3]
  EC50: 3.94 nM
  Emax: 1620
[4]
  IC50 (nM), cell killing caused by endocytosis of antibodies (DT3C, DMS53/DLL3 cells): 3.27 nM
  Imax, cell killing caused by endocytosis of antibodies (DT3C, DMS53/DLL3 cells): 86.5
[5]
  binding result: no binding
[6]
  IC50 (read off the curve): ~0.06 µg/mL
[7]
  EC50: 3.42 nM
  Emax: 963

B3: hAb6L4H6 (antibody, human IgG1, kappa, V domains shown)
VH: EVQLVQSGSELKKPGASVKVSCKASGYTFTDYYMNWVRQAPGQGLEWMGIINPYSGVTIYNHKFKGRFVLSVDKSSNTAYLQISSLKAEDTAVYYCARQDSLLDYAMDYWGQGTTVTVSS
VL: DIQMTQSPSSLSASVGDRVTITCHASQGISGNMGWLQQKPGKAPKGLIYHGANLEDGVPSRFSGSGSGADYTLTISSLQPEDFADYYCVQYAQFPYTFGGGTKVEIKR
[3]
  EC50: 0.17 nM
  Emax: 2000

B4: M6CHI (antibody, human IgG1, kappa, V domains shown)
VH: EVQLQQSGPVLVKPGASVKMSCKASGYTFTDYYMNWVKQSHGKSLEWIGIINPYSGVTIYNHKFKGKATLTVDKSSNTAYMELNSLTSEDSAVYYCARQDSLLDYAMDYWGQGTSVTVSS
VL: DILMTQSPSSMSVSLGDTVSITCHASQGISGNMGWLQQKPGKSFKGLIYHGANLEDGVPSRFSGSGSGADYSLTISSLESEDFADYYCVQYAQFPYTFGGGTKLEIKR
notes: murine variable regions on human IgG1 / kappa constant regions; also called chimeric antibody of mAb6
[3]
  EC50: 0.14 nM
  Emax: 3370
